Measured values reported in patent US20190077858A1 (KM BIOLOGICS, published 2019).

How the values were obtained:
[1] = target: T1, human IL-1β (Funakoshi Corp.) (human, UniProt P01584 117-269, biotinylated (Biotin-PEAC5-maleimide or Biotin-AC5 Sulfo-OSu)); assay: ELISA on biotinylated cytokine on streptavidin plates
T1 construct: also called biotinylated human IL-1β

[2] = target: T2, rat IL-18 (Acris Antibodies GmbH) (rat, UniProt P97636 37-194, limits assumed, biotinylated (Biotin-PEAC5-maleimide or Biotin-AC5 Sulfo-OSu)); assay: as above
T2 construct: also called biotinylated rat IL-18
T2 sequence (looked up): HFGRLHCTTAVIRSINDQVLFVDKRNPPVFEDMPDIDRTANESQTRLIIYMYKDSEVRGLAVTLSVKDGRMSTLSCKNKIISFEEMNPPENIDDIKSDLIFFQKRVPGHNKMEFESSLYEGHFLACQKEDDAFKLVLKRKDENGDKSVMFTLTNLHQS

[3] = target: T3, human IL-33 (MBL Medical & Biological Laboratories, Co., Ltd.) (human, UniProt O95760 112-270, limits assumed, biotinylated (Biotin-PEAC5-maleimide or Biotin-AC5 Sulfo-OSu)); assay: as above
T3 construct: also called biotinylated human IL-33
T3 sequence (looked up): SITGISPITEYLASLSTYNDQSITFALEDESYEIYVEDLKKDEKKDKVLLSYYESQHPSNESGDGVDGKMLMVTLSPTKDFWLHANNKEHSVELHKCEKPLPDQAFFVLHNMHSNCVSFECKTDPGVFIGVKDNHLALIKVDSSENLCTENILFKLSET

[4] = target: T4, mouse IL-18 (MBL Medical & Biological Laboratories, Co., Ltd.) (mouse, UniProt P70380 36-192, biotinylated (Biotin-PEAC5-maleimide or Biotin-AC5 Sulfo-OSu)); assay: as above
T4 construct: also called biotinylated mouse IL-18
T4 sequence (looked up): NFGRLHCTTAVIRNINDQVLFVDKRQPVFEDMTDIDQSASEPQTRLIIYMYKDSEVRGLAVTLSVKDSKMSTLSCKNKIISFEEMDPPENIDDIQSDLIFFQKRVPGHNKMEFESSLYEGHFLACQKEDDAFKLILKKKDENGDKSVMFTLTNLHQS

[5] = target: T5, human IL-18 (MBL Medical & Biological Laboratories, Co., Ltd.) (human, UniProt Q14116 37-193, biotinylated (Biotin-PEAC5-maleimide or Biotin-AC5 Sulfo-OSu) in the streptavidin plate ELISAs and the panning; not labelled in the receptor binding and KG-1 assays); assay: blocking ELISA: human IL-18 with IL-18Rα-hFc-His and the antibody added to plate-bound IL-18Rβ-hFc, anti-His tag/HRP; blocked partner: IL-18 receptor
T5 construct: Bought protein; also called human interleukin-18; biotinylated human IL-18
T5 sequence (looked up): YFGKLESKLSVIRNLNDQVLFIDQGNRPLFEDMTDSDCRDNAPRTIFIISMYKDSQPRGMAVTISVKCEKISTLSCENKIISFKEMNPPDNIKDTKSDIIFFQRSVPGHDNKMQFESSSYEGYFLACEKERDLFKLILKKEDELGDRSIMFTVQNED
Experimental: IL-18Rβ-hFc (R&D Systems, Inc.) was added at 100 μL/well at a concentration of 1 μg/mL to Covalink plates (Nunc) and incubated at room temperature for 1 hour and then incubated overnight at 4° C. On the next day, the plates were washed with PBS (phosphate buffered saline) and blocked with 1% BSA (bovine serum albumin)-PBS. Human IL-18 (MBL Medical & Biological Laboratories, Co., Ltd.) was prepared at a concentration of 0.5 μg/mL with 1% BSA-PBS, and IL-18Rα-hFc-His (R&D Systems, Inc.) was prepared at a concentration of 2 μg/mL with 1% BSA-PBS. Both of the solutions were mixed (50 μL each). The obtained anti-IL-18 antibody was further added to the IL-18/IL-18Rα-hFc-His mixed solution. This mixed solution was added to the IL-18Rβ-hFc-immobilized Covalink plates and incubated at 37° C. for 1 hour. After 1 hour, the plates were washed with PBST (phosphate buffered saline-Tween 20), and a detection antibody anti-His tag/HRP (Bethyl Laboratories, Inc.) was added at 100 μL/well to the plates and incubated at 37° C. After 1 hour, the plates were washed with PBST, and TMB (Sigma-Aldrich Corp.) was added at 100 μL/well to the plates to develop color. After 30 minutes, the reaction was terminated with 2 N sulfuric acid, and the color values (O.D. 450 nm/650 nm) were measured using a microplate reader (Molecular Devices, Inc.).

- binding result [1]: no binding
- binding result [2]: no binding
- binding result [3]: no binding
- binding result [4]: no binding
- IC50 (read off the curve) [5]: ~0.3 µg/mL
B1: IgG molecule-type 4A6D (antibody, V domains shown)
VH: EVQLVESGGGLVQPGGSMRLSCTASGFTFDEYAMSWVRQAPGKGLEWVSGISTGGGGTYYADSVEGRFTISRDNSKNTLYLQMNSLRAEDTAVYYCAKPWLSGSRSGDFWGQGTLVTVSS
VL: QSALTQPASVSGSPGQSITISCTGTSSDVGGYNYVSWYQQHPGKAPKLLIYEVSHRPSGVSDRFSGSKSGNTASLTISGLQAEDEADYYCSSFTSSSSLYVFGTGTKLTVL
notes: detected with anti-hFc, so human constant regions; also called human anti-human IL-18 antibody 4A6D
